Results as given in US20180155451A1 (published 2018).

B1: GpH7-A5/GpH7-B3 variant L328_07I/GpL16-k0 (antibody, human IgG1, kappa)
heavy 1: not shown
heavy 2: not shown
light: DIVMTQSPLSLPVTPGEPASISCQASESLVHSNRNTYLHWYLQKPGQSPQLLIYKVSNRFSGVPDRFSGSGSGTDFTLKISRVEAEDVGVYYCSQNTHVPPTFGQGTKVEIERTVAAPSVFIFPPSDEQLKSGTASVVCLLNNFYPREAKVQWKVDNALQSGNSQESVTEQDSKDSTYSLSSTLTLSKADYEKHKVYACEVTHQGLSSPVTKSFNRGEC
notes: heterodimerized IgG1; alteration in the GpH7-B3 H chain only; also called He Ab
B2: GpH7-A5/GpH7-B3 variant N325_20W/GpL16-k0 (antibody, human IgG1, kappa)
heavy 1: not shown
heavy 2: not shown
light: B1 light
notes: as for B1
B3: GpH7-A5/GpH7-B3 variant P331_03V/GpL16-k0 (antibody, human IgG1, kappa)
heavy 1: not shown
heavy 2: not shown
light: B1 light
notes: as for B1
B4: GpH7-A5/GpH7-B3 variant N325_13S/GpL16-k0 (antibody, human IgG1, kappa)
heavy 1: not shown
heavy 2: not shown
light: B1 light
notes: as for B1
B5: GpH7-A5/GpH7-B3 variant L328_13S/GpL16-k0 (antibody, human IgG1, kappa)
heavy 1: not shown
heavy 2: not shown
light: B1 light
notes: as for B1
B6: GpH7-A5/GpH7-B3 variant N325_01G/GpL16-k0 (antibody, human IgG1, kappa)
heavy 1: not shown
heavy 2: not shown
light: B1 light
notes: Heterodimerized anti-glypican-3 IgG1; mutation in the GpH7-B3 H chain only; also called He Ab
B7: GpH7-A5/GpH7-B3 variant N325_03V/GpL16-k0 (antibody, human IgG1, kappa)
heavy 1: not shown
heavy 2: not shown
light: B1 light
notes: as for B6
B8: GpH7-A5/GpH7-B3 variant N325_09D/GpL16-k0 (antibody, human IgG1, kappa)
heavy 1: not shown
heavy 2: not shown
light: B1 light
notes: as for B6
B9: GpH7-A5/GpH7-B3 variant N325_04F/GpL16-k0 (antibody, human IgG1, kappa)
heavy 1: not shown
heavy 2: not shown
light: B1 light
notes: as for B6
B10: GpH7-A5/GpH7-B3 variant K326_08L/GpL16-k0 (antibody, human IgG1, kappa)
heavy 1: not shown
heavy 2: not shown
light: B1 light
notes: as for B6
B11: GpH7-A5/GpH7-B3 variant K326_14T/GpL16-k0 (antibody, human IgG1, kappa)
heavy 1: not shown
heavy 2: not shown
light: B1 light
notes: as for B6
B12: GpH7-A5/GpH7-B3 variant K326_09D/GpL16-k0 (antibody, human IgG1, kappa)
heavy 1: not shown
heavy 2: not shown
light: B1 light
notes: as for B6
B13: GpH7-A5/GpH7-B3 variant K326_19Q/GpL16-k0 (antibody, human IgG1, kappa)
heavy 1: not shown
heavy 2: not shown
light: B1 light
notes: as for B6
B14: GpH7-A5/GpH7-B3 variant K326_20W/GpL16-k0 (antibody, human IgG1, kappa)
heavy 1: not shown
heavy 2: not shown
light: B1 light
notes: as for B6
B15: GpH7-A5/GpH7-B3 variant K326_07I/GpL16-k0 (antibody, human IgG1, kappa)
heavy 1: not shown
heavy 2: not shown
light: B1 light
notes: as for B6
B16: GpH7-A5/GpH7-B3 variant N325_05P/GpL16-k0 (antibody, human IgG1, kappa)
heavy 1: not shown
heavy 2: not shown
light: B1 light
notes: as for B6
B17: GpH7-A5/GpH7-B3 variant N325_07I/GpL16-k0 (antibody, human IgG1, kappa)
heavy 1: not shown
heavy 2: not shown
light: B1 light
notes: as for B6
B18: GpH7-A5/GpH7-B3 variant N325_02A/GpL16-k0 (antibody, human IgG1, kappa)
heavy 1: not shown
heavy 2: not shown
light: B1 light
notes: as for B6
B19: GpH7-A5/GpH7-B3 variant K326_06M/GpL16-k0 (antibody, human IgG1, kappa)
heavy 1: not shown
heavy 2: not shown
light: B1 light
notes: as for B6
B20: GpH7-A5/GpH7-B3 variant K326_10E/GpL16-k0 (antibody, human IgG1, kappa)
heavy 1: not shown
heavy 2: not shown
light: B1 light
notes: as for B6
B21: GpH7-A5/GpH7-B3 variant K326_15Y/GpL16-k0 (antibody, human IgG1, kappa)
heavy 1: not shown
heavy 2: not shown
light: B1 light
notes: as for B6
B22: GpH7-A5/GpH7-B3 variant N325_08L/GpL16-k0 (antibody, human IgG1, kappa)
heavy 1: not shown
heavy 2: not shown
light: B1 light
notes: as for B6
B23: GpH7-A5/GpH7-B3 variant N325_06M/GpL16-k0 (antibody, human IgG1, kappa)
heavy 1: not shown
heavy 2: not shown
light: B1 light
notes: as for B6
B24: GpH7-A5/GpH7-B3 variant K334_20W/GpL16-k0 (antibody, human IgG1, kappa)
heavy 1: not shown
heavy 2: not shown
light: B1 light
notes: as for B6
B25: GpH7-A5/GpH7-B3 variant S337_18N/GpL16-k0 (antibody, human IgG1, kappa)
heavy 1: not shown
heavy 2: not shown
light: B1 light
notes: as for B6
B26: GpH7-A5/GpH7-B3 variant S337_15Y/GpL16-k0 (antibody, human IgG1, kappa)
heavy 1: not shown
heavy 2: not shown
light: B1 light
notes: as for B6

Biological target: T1, FcγRIa (human, UniProt P12314 16-292)
T1 construct: extracellular domain; also called FcgRI; 1a; not shown: His tag at the C terminus
T1 sequence (P12314 16-292): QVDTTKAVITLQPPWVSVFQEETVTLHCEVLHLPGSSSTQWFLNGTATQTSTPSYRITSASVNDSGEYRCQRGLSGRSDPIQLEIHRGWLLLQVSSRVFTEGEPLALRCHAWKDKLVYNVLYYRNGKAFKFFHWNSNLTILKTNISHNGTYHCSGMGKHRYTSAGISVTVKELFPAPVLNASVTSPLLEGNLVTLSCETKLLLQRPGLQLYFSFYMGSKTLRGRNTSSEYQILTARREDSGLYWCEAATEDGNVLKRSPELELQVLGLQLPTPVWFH
Test: SPR (Biacore); He/Con_1a (FcγRIa) divided by He/Con_2b (FcγRIIb)

Ia/IIb He_1a/2b | Binder
0.62 ratio | B1
0.56 ratio | B2
0.78 ratio | B3
0.55 ratio | B4
0.66 ratio | B5

Biological target: T2, FcγRIIa H (human, UniProt P12318 34-217)
T2 construct: extracellular domain; Soluble His-tagged extracellular domain expressed in FreeStyle293 cells; also called FcγRIIa type H; FcgRIIa H; not shown: His tag attached to the C terminus
T2 sequence (looked up): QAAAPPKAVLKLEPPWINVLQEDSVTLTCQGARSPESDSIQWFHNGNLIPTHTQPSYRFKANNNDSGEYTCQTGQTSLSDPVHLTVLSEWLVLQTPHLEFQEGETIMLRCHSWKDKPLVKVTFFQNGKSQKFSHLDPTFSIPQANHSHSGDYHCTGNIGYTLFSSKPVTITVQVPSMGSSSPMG
Test: SPR (Biacore); He/Con_2aH divided by He/Con_2b (FcγRIIb) of the same antibody
Description: (§1) The heterodimerized antibodies He Abs in which one of the H chains was introduced with an alteration were assayed for their binding activities to each activating FcγR and inhibitory FcγR according to the method described in Example 4. […] The activating FcγRs in FIGS. 26, 27, 28, and 29 are FcγRIa, FcγRIIa (R), FcγRIIa (H), and FcγRIIIa, respectively.
(§2) Analysis of interaction between objective antibody and the FcγR was carried out using Biacore T100 (GE Healthcare). HBS-EP+ (GE Healthcare) was used as the running buffer, and the measurement temperature was set to 25° C. Chips produced by immobilizing the antigen peptide by the amine coupling method to a Series S Sencor Chip CM5 (GE Healthcare), or alternatively, chips produced by allowing preliminarily biotinylated antigen peptides to interact with and immobilize onto a Series S Sensor Chip SA (certified) (GE Healthcare) were used. Antibodies of interest were captured onto an antigen peptide-immobilized chip, and allowed to interact to each FcγR diluted with running buffer. To regenerate and repeatedly use the chip, the antibodies captured on the chip were washed off by reacting 10 mM glycine-HCl, pH 1.5.

He_2aH/2b | Binder
0.56 ratio | B6
0.41 ratio | B7
0.43 ratio | B8
0.23 ratio | B9
0.52 ratio | B10
0.77 ratio | B11
0.57 ratio | B12
0.73 ratio | B13
0.56 ratio | B14
0.5 ratio | B15
0.8 ratio | B16
0.22 ratio | B17
0.74 ratio | B18
0.63 ratio | B19
0.51 ratio | B20
0.62 ratio | B21
0.26 ratio | B22
0.22 ratio | B23

Biological target: T3, FcγRIIb (human, UniProt P31994 43-217)
T3 construct: extracellular domain; also called FcgRIIb; 2b; not shown: His tag at the C terminus
T3 sequence (looked up): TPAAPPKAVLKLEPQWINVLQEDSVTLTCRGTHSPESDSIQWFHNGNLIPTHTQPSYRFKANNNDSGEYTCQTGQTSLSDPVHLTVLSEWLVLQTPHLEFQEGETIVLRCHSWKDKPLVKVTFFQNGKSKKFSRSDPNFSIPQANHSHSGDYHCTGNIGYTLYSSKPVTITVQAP
Test: SPR (Biacore), antibody captured, FcγR as analyte; binding as % of GpH7-A5/GpH7-B3/GpL16-k0

He/Con_2b | Binder
160 % of control | B1
169 % of control | B2
119 % of control | B3
177 % of control | B4
149 % of control | B5

Biological target: T1, FcγRIa
Test: as above

He/Con_1a | Binder
99.4 % of control | B1
93.8 % of control | B2
92 % of control | B3
96.8 % of control | B4
99 % of control | B5

Biological target: T3, FcγRIIb
Test: as above
Remark: another data set of the same source

He/Con_2b | Binder
160 % of control | B1
169 % of control | B2
119 % of control | B3
177 % of control | B4
149 % of control | B5

Biological target: T1, FcγRIa
Test: as above
Remark: another data set of the same source

He/Con_1a | Binder
99.4 % of control | B1
93.8 % of control | B2
92 % of control | B3
96.8 % of control | B4
99 % of control | B5

Biological target: T2, FcγRIIa H
Test: SPR (Biacore), captured antibody, FcγR analyte; relative to GpH7-A5/GpH7-B3/GpL16-k0 = 100
Description: as §1, §2

He/Con_2aH | Binder
56.8 relative (control = 100) | B6
45.2 relative (control = 100) | B7
53.1 relative (control = 100) | B8
33.4 relative (control = 100) | B9
92.7 relative (control = 100) | B10
114 relative (control = 100) | B11
110 relative (control = 100) | B12
101 relative (control = 100) | B13
83.3 relative (control = 100) | B14
100 relative (control = 100) | B15
20.7 relative (control = 100) | B16
38.1 relative (control = 100) | B17
47.6 relative (control = 100) | B18
103 relative (control = 100) | B19
97.6 relative (control = 100) | B24
102 relative (control = 100) | B20
98.3 relative (control = 100) | B21
99.8 relative (control = 100) | B25
52 relative (control = 100) | B22
48.2 relative (control = 100) | B23
99.4 relative (control = 100) | B26

Biological target: T4, FcγRIIb (human, UniProt P31994 43-217)
T4 construct: extracellular domain; Soluble His-tagged extracellular domain expressed in FreeStyle293 cells; also called FcgRIIb; 2b; not shown: His tag attached to the C terminus
T4 sequence (looked up): T3 sequence (looked up)
Test: as above
Description: as §1, §2

He/Con_2b | Binder
101 relative (control = 100) | B6
111 relative (control = 100) | B7
124 relative (control = 100) | B8
143 relative (control = 100) | B9
177 relative (control = 100) | B10
150 relative (control = 100) | B11
193 relative (control = 100) | B12
139 relative (control = 100) | B13
148 relative (control = 100) | B14
199 relative (control = 100) | B15
26 relative (control = 100) | B16
171 relative (control = 100) | B17
64.4 relative (control = 100) | B18
165 relative (control = 100) | B19
104 relative (control = 100) | B24
200 relative (control = 100) | B20
159 relative (control = 100) | B21
103 relative (control = 100) | B25
197 relative (control = 100) | B22
217 relative (control = 100) | B23
100 relative (control = 100) | B26
